Reference: patent US7070943B2 (priority 1998, dated 2006)

What was measured:
Assay type in all cases: cell-based, Human
cyclin D3 [1] = assay: Cyclin D3 expression by multiparameter flow cytometry in U937 cells; settings: U937, 170 nM
Method: Anti-cyclin D3 mAb immunofluorescence in combination with DNA content was measured by multiparameter flow cytometry (a). […] There were 48%, 38% and 14% of cells in G1, S, and G2/M in Exp culture compared with 64%, 24% and 13% cells in G1, S, and G2/M, respectively, in Onc culture. The scattergrams represent bivariate distributions of the cells with respect to their cyclin D3 vs. DNA content associated fluorescence intensities. The upper level of the isotype-matched control (mean fluorescence+3 standard deviations) is marked in the Exp panel with a dashed line. The bar plots represent the mean FITC (anti-cyclin D3 mAb) fluorescence values (arbitrary units) of the cells in different phases of the cycle (gated based on differences in DNA content as shown in the Exp panel), after subtraction of the background fluorescence, i.e., mean fluorescence of the same cells but stained with isotype-matched control IgG antibody. […]
Cellular fluorescence was measured with the ELITE ESP flow cytometer/cell sorter (Coulter, Miami, Fla., USA) using either argon ion laser (emission at 488 nm) alone or combined with helium-cadmium laser (emitting UV light). […] In the second case, DNA content was analyzed based on DAPI fluorescence (blue emission) excited by UV light, while the anti-pRB^P− mAb (FITC) and anti-pRB^T (Cy-Chrome®) related emission was excited with blue light laser.

cyclin D3 [2] = assay: Western blot of cyclin D3 in U937 cells; settings: U937, 48 h
Method: (§1) Anti-cyclin D3 mAb immunofluorescence in combination with DNA content was measured by multiparameter flow cytometry (a). The cells were growing either in the absence (Exp, exponential growth) or in the presence of 170 nM ONCONASE® for 48 hours (Onc). There were 48%, 38% and 14% of cells in G1, S, and G2/M in Exp culture compared with 64%, 24% and 13% cells in G1, S, and G2/M, respectively, in Onc culture. The scattergrams represent bivariate distributions of the cells with respect to their cyclin D3 vs. DNA content associated fluorescence intensities. The upper level of the isotype-matched control (mean fluorescence+3 standard deviations) is marked in the Exp panel with a dashed line. The bar plots represent the mean FITC (anti-cyclin D3 mAb) fluorescence values (arbitrary units) of the cells in different phases of the cycle (gated based on differences in DNA content as shown in the Exp panel), after subtraction of the background fluorescence, i.e., mean fluorescence of the same cells but stained with isotype-matched control IgG antibody. Western blots (b) show expression of cyclin D3 in control culture and in the culture treated with Onconase 48 h;
To reveal specificity of the antibodies that were used, a standard immunoblotting procedure was used on cellular lysates.

U937 cells = assay: Cell cycle distribution and apoptotic (sub-G1) cells by DNA content flow cytometry; settings: U937, 170 nM
Method: FIG. 11 presents growth and viability curves (a) as well as cell cycle distribution (b) of U937 cells maintained in the absence (CTRL) and presence of 170 nM (2.0 μg/ml) ONCONASE® (ONC) for up to 72 h. The percentage of dead cells was estimated based on the trypan blue exclusion test. The percentage of cells in the respective phases was estimated flow cytometrically based on their DNA content. Apoptotic cells (Ap) were recognized as the cells with fractional DNA content (sub-G1), as previously described;
as §1
Following incubations in the absence or presence of ONCONASE®, the cells were washed with phosphate-buffered saline (PBS) and fixed in suspension in either ice-cold 80% ethanol or absolute methanol for up to 24 h. After fixation, the cells were washed twice with PBS and then suspended in 1 ml of 0.25% Triton X-100 (Sigma, St. Louis, Mo., USA) in PBS on ice for 5 min. The cells were then centrifuged (300 g, 5 min), the cell pellet suspended 100 μl PBS containing 0.5 μg of the anti-cyclin (or anti-CKI) mAb and 1% bovine serum albumin (BSA; Sigma), and incubated for 2 h at room temperature. Anti-cyclin D3 (clone G107-565); anti-cyclin E (clone HE12); anti-p16^INK4a (clone G175-405); and […] (clone SX118) and anti-p27^KIP1 (clone G173-524) mAbs, all were obtained from PharMingen (San Diego, Calif., USA). After incubation with the respective mAbs the cells were rinsed with PBS containing 1% BSA and incubated with the FITC-conjugated goat anti-mouse IgG antibody (Molecular Probes) diluted 1:30 in PBS containing 1% BSA for 30 min at room temperature in the dark. […]
Cellular fluorescence was measured with the ELITE ESP flow cytometer/cell sorter (Coulter, Miami, Fla., USA) using either argon ion laser (emission at 488 nm) alone or combined with helium-cadmium laser (emitting UV light). In the first case, fluorescence signals were collected using the standard configuration of the flow cytometer (green fluorescence, representing directly or indirectly FITC-labeled antibodies; red fluorescence representing CYCHROME® tagged anti-pRB^T mAb). In the second case, DNA content was analyzed based on DAPI fluorescence (blue emission) excited by UV light, while the anti-pRB^P− mAb (FITC) and anti-pRB^T (Cy-Chrome®) related emission was excited with blue light laser. […]

B1: ONCONASE®: basic protein of 12,000 MW isolated from oocytes or early embryos of Rana pipiens, homologous to pancreatic RNase A (protein, UniProt P22069 1-104, looked up)
Protein P-30: QDWLTFQKKHITNTRDVDCDNIMSTNLFHCKDKNTFIYSRPEPVKAICKGIIASKNVLTTSEFYLSDCNVTSRPCKYKLKKSTNKFCVTCENQAPVHFVGVGSC
decrease of overall level of cyclin D3 (cyclin D3 [1]; after 24 h): about 20%
reduction of overall level of cyclin D3 (cyclin D3 [1]; after 48 hours): over 70%
expression of cyclin D3, Western blot (cyclin D3 [2]): decrease in expression of cyclin D3
cells in G2/M (U937 cells; 48 hours (Exp culture 14%)): 13%
cells in S (U937 cells; 48 hours (Exp culture 38%)): 24%
cells in G1 (U937 cells; 48 hours (Exp culture 48%)): 64%
proportion of cells in G0/1 phase (U937 cells; after 72 h (from 47% in control)): ~70%
percentage of apoptotic cells (sub-G1) (U937 cells; up to 72 h (from 2%)): 6%
